The labels stand for the following.
B1: TREM2 (triggering receptor expressed on myeloid cells 2) with a Myc-tag at the C terminus, wild type [human] / presenilin 1 (PS1), wild type [not stated] (parent)
chain 1: HNTTVFQGVAGQSLQVSCPYDSMKHWGRRKAWCRQLGEKGPCQRVVSTHNLWLLSFLRRWNGSTAITDDTLGGTLTITLRNLQPHDAGLYQCQSLHGSEADTLRKVLVEVLADPLDHRDAGDLWFPGESESFEDAHVEHSISRSLLEGEIPFPPTSILLLLACIFLIKILAASALWAAAWHGQKPGTHPPSELDCGHDPGYQLQTLPGLRDT
chain 2: not shown

This assay covers variants of B1. Description: co-immunoprecipitation with PS1 antibody Ab14, immunoblot band quantification. The note with it: with presenilin 1 (PS1), HEK293 cells stably expressing Myc-tagged TREM2, transfected with PS1, n=3, read off a plot.
chain 1 T48M: the ratio to parent (arbitrary unit) came out at 0.68. In the case of chain 1 T78K, the ratio to parent (arbitrary unit) was determined as 1.2. For chain 1 R29H the value was 1.2.

The record behind these values is article PMC5750471.
